Results as given in the supplement of paper PMC9112550, “Optimization of the antimicrobial peptide Bac7 by deep mutational scanning” (BMC Biology, 2022).

Each sequence was assayed on Escherichia coli TOP10 (assay: shrunken log2 fold change of peptide-encoding DNA abundance (4.5 h post-induction vs induction); higher = less antimicrobial activity (less host growth inhibition)). Details: time post-induction: 4.5 h; library: site-saturation at positions 5, 18, 19, 20.
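Further: peptides expressed intracellularly from a pBAD plasmid library in pooled LB shake-flask culture, induced with 0.3% L-arabinose, DNA abundance read by NGS, three biological replicates, DESeq2 with apeglm shrinkage.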

| Sequence | shrunken log2 fold change |
| --- | --- |
| RRIRARPPRLPRPRPRPTVFPRP | 0.0832 |
| RRIRARPPRLPRPRPRPTVNPRP | -0.0152 |
| RRIRARPPRLPRPRPRPTWIPRP | 0.291 |
| RRIRARPPRLPRPRPRPTWQPRP | 0.4 |
| RRIRARPPRLPRPRPRPTWVPRP | 0.225 |
| RRIRARPPRLPRPRPRPTYDPRP | -0.0892 |
| RRIRARPPRLPRPRPRPVAKPRP | 0.577 |
| RRIRARPPRLPRPRPRPVAVPRP | 0.445 |
| RRIRARPPRLPRPRPRPVCMPRP | 0.226 |
| RRIRARPPRLPRPRPRPVCNPRP | 0.0721 |
| RRIRARPPRLPRPRPRPVDYPRP | 0.197 |
| RRIRARPPRLPRPRPRPVEQPRP | 0.446 |
| RRIRARPPRLPRPRPRPVGMPRP | 0.376 |
| RRIRARPPRLPRPRPRPVGRPRP | 0.691 |
| RRIRARPPRLPRPRPRPVHEPRP | 0.00256 |
| RRIRARPPRLPRPRPRPVHLPRP | 0.215 |
| RRIRARPPRLPRPRPRPVIAPRP | 0.161 |
| RRIRARPPRLPRPRPRPVIGPRP | 0.535 |
| RRIRARPPRLPRPRPRPVISPRP | 0.0798 |
| RRIRARPPRLPRPRPRPVKVPRP | 0.0388 |
| RRIRARPPRLPRPRPRPVLTPRP | 0.384 |
| RRIRARPPRLPRPRPRPVMSPRP | 0.0513 |
| RRIRARPPRLPRPRPRPVPMPRP | 0.404 |
| RRIRARPPRLPRPRPRPVQNPRP | 0.814 |
| RRIRARPPRLPRPRPRPVRSPRP | 0.345 |

| Sequence | shrunken log2 fold change |
| --- | --- |
| RRIRARPPRLPRPRPRPVRTPRP | 1.06 |
| RRIRARPPRLPRPRPRPVSVPRP | 0.137 |
| RRIRARPPRLPRPRPRPVTTPRP | 0.342 |
| RRIRARPPRLPRPRPRPVVWPRP | 0.687 |
| RRIRARPPRLPRPRPRPVWIPRP | -0.0967 |
| RRIRARPPRLPRPRPRPVWQPRP | 0.129 |
| RRIRARPPRLPRPRPRPWAQPRP | 0.0167 |
| RRIRARPPRLPRPRPRPWCEPRP | 0.404 |
| RRIRARPPRLPRPRPRPWCFPRP | 0.0976 |
| RRIRARPPRLPRPRPRPWDIPRP | 0.173 |
| RRIRARPPRLPRPRPRPWFMPRP | -0.108 |
| RRIRARPPRLPRPRPRPWGDPRP | 0.376 |
| RRIRARPPRLPRPRPRPWGIPRP | -0.0125 |
| RRIRARPPRLPRPRPRPWGSPRP | 0.115 |
| RRIRARPPRLPRPRPRPWHDPRP | -0.00134 |
| RRIRARPPRLPRPRPRPWHLPRP | -0.0312 |
| RRIRARPPRLPRPRPRPWHTPRP | -0.219 |
| RRIRARPPRLPRPRPRPWHYPRP | -0.253 |
| RRIRARPPRLPRPRPRPWINPRP | -0.218 |
| RRIRARPPRLPRPRPRPWKLPRP | -0.36 |
| RRIRARPPRLPRPRPRPWKTPRP | -0.0874 |
| RRIRARPPRLPRPRPRPWLGPRP | 0.417 |
| RRIRARPPRLPRPRPRPWMEPRP | -0.0866 |
| RRIRARPPRLPRPRPRPWMLPRP | -0.306 |
| RRIRARPPRLPRPRPRPWNIPRP | -0.675 |

| Sequence | shrunken log2 fold change |
| --- | --- |
| RRIRARPPRLPRPRPRPWRNPRP | -0.0929 |
| RRIRARPPRLPRPRPRPWSGPRP | -0.0707 |
| RRIRARPPRLPRPRPRPWSMPRP | -0.198 |
| RRIRARPPRLPRPRPRPWSRPRP | -0.151 |
| RRIRARPPRLPRPRPRPWTAPRP | 0.871 |
| RRIRARPPRLPRPRPRPWTCPRP | 0.0519 |
| RRIRARPPRLPRPRPRPWTSPRP | -0.064 |
| RRIRARPPRLPRPRPRPWVKPRP | 0.0825 |
| RRIRARPPRLPRPRPRPWVLPRP | -0.0908 |
| RRIRARPPRLPRPRPRPWYKPRP | -0.229 |
| RRIRARPPRLPRPRPRPYEKPRP | -0.201 |
| RRIRARPPRLPRPRPRPYEMPRP | -0.0385 |
| RRIRARPPRLPRPRPRPYEVPRP | -0.0785 |
| RRIRARPPRLPRPRPRPYEYPRP | -0.04 |
| RRIRARPPRLPRPRPRPYGIPRP | -0.00196 |
| RRIRARPPRLPRPRPRPYGMPRP | -0.684 |
| RRIRARPPRLPRPRPRPYGWPRP | 0.0617 |
| RRIRARPPRLPRPRPRPYITPRP | -0.904 |
| RRIRARPPRLPRPRPRPYKDPRP | -0.348 |
| RRIRARPPRLPRPRPRPYLDPRP | 0.118 |
| RRIRARPPRLPRPRPRPYLFPRP | -0.494 |
| RRIRARPPRLPRPRPRPYLHPRP | -1.18 |
| RRIRARPPRLPRPRPRPYMEPRP | -0.348 |
| RRIRARPPRLPRPRPRPYPFPRP | -0.63 |
| RRIRARPPRLPRPRPRPYPRPRP | 0.00693 |
